# From US20230138315A1 (JIANGSU HENGRUI MEDICINE, published 2023)
# Positions count from the first letter of the chain named. Names and notes keep the numbering of the source.
# T1: rat ANGPTL3(17-455)-His (rat, biotin-labelled in the ELISA and HTRF assays (sites not given))
# T1 construct: also called full-length rat ANGPTL3
# T1 chain: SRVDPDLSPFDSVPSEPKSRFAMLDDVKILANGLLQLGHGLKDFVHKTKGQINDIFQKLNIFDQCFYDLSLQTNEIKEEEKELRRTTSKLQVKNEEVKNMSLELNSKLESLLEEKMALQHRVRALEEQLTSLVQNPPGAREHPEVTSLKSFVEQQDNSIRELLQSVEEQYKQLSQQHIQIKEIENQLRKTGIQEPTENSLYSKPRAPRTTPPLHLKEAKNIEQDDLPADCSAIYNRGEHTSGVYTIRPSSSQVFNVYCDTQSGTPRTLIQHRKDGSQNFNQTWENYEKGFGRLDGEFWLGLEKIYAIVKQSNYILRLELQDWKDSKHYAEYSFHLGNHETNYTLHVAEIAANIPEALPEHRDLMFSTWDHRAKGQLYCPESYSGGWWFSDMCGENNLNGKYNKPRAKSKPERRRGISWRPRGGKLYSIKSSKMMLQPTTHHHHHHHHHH
# T2: mouse ANGPTL3(17-455)-His (mouse, UniProt Q9R182 17-455, biotin-labelled in the ELISA and HTRF assays (sites not given))
# T2 construct: also called full-length mouse ANGPTL3
# T2 sequence: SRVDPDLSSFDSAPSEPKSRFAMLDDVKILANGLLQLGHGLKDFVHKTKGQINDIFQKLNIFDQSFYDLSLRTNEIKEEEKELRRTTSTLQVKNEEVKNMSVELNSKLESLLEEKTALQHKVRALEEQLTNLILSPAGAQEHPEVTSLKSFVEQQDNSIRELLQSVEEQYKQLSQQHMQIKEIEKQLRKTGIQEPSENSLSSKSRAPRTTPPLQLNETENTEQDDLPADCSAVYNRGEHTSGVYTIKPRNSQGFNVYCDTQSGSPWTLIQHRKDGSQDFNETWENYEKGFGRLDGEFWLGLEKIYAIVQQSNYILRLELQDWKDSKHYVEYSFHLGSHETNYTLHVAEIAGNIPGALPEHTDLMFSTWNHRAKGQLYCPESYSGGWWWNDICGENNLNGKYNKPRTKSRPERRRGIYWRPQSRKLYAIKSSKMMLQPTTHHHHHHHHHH
# T3: cynomolgus monkey ANGPTL3(17-460)-His (cynomolgus monkey, UniProt Q9Y5C1 17-460 (human entry), biotin-labelled in the ELISA and HTRF assays (sites not given))
# T3 construct: also called full-length cynomolgus monkey ANGPTL3; Cyno ANGPTL3
# T3 chain: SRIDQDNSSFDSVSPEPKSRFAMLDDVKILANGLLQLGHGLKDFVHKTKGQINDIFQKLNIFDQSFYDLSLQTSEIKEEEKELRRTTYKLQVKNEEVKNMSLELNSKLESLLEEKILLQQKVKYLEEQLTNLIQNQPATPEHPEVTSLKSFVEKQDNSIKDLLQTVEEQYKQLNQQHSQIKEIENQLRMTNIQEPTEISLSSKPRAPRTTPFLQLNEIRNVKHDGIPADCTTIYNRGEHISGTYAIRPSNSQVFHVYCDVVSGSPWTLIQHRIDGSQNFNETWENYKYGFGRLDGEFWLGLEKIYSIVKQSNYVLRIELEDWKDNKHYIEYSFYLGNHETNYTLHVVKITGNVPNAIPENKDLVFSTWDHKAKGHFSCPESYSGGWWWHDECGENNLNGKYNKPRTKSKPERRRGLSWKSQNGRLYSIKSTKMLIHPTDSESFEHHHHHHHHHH
# B1: P8G (antibody, human IgG4 S228P, kappa, V domains shown)
# VH: QVQLVQSGAEVKKPGASVKVSCKASGYTFTSYDINWVRQAPGQGLEWVGLINPRDDSTSYAQKFQGRVTMTRDTSTSTMYMELSSLRSEDTAVYFCARDLGSIREVLYYGMDVWGQGTTVTVSS
# VL: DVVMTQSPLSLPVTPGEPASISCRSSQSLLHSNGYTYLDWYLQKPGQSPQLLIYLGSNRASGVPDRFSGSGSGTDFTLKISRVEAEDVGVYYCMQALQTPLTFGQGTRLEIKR
# notes: also called anti-ANGPTL3 antibody P8G; P8 (variable regions)
# B2: P8BG (antibody, human IgG4 S228P, kappa, V domains shown)
# VH: B1 VH with D55E
# VL: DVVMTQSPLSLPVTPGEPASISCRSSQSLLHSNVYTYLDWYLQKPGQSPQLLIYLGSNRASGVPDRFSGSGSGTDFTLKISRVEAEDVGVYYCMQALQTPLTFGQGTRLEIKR
# notes: also called anti-ANGPTL3 antibody P8BG; P8B (variable regions)
# B3: P3G (antibody, human IgG4 S228P, kappa, V domains shown)
# VH: QVQLVQSGAEVKKPGASVKVSCKSSGYTFTDYYLHWLRQAPGQGPEWMGWISPNSGGTSYAQKFQGRVTMTRDTSISTAYMELSSLRSDDTAVYYCARDIATLGNFFTYGMDVWGQGTTVTVSS
# VL: DIQLTQSPSSLSASVGDRVTITCRASQGIRNDLGWYQQKPGKAPKLLIYAASSLQSGVPSRFSGSGSGTDFTLTISSLQPEDFATYYCQQSYSSWTFGQGTKVEIKR
# notes: also called anti-ANGPTL3 antibody P3G; P3 (variable regions)
# Legend:
# Test in all cases: ELISA; biotin-labelled antigen on streptavidin-coated plate
# rat ANGPTL3(17-455)-His = biological target: T1, rat ANGPTL3(17-455)-His
# Method: (§1) An anti-ANGPTL3 antibody inhibited or interfered with at least one activity of an ANGPTL3 protein by binding to the ANGPTL3 protein. The binding activity of the anti-ANGPTL3 antibody to the ANGPTL3 antigen was tested by an ELISA assay. The ANGPTL3 protein (human ANGPTL3(17-170)-mFc) was immobilized on a 96-well microplate by binding to the goat anti-mouse IgG coated on the microplate, and the binding activity of the antibody to the ANGPTL3 was determined according to the intensity of the signal after the antibody was added.
# (§2) Streptavidin (Sigma, S4762-5MG) was diluted to a concentration of 3 μg/mL with PBS buffer (Shanghai BasalMedia, B320, pH 7.4), added to a 96-well microplate (Corning, CLS3590-100EA) at 50 μL/well, and then incubated in an incubator at 37° C. for 3 h or incubated at 4° C. overnight (16-18 h). After the liquid was discarded, a PBS-diluted 5% skim milk (BD, 232100) blocking solution was added at 250 μL/well, and the mixture was incubated in an incubator at 37° C. for 3 h or incubated at 4° C. overnight (16-18 h) for blocking. […] The mixture was incubated in an incubator at 37° C. for 2 h. After the incubation was finished, the reaction solution in the microplate was discarded. The plate was washed 3 times with PBST, and then a test antibody that was diluted with a sample diluent to different concentrations was added at […]. The mixture was incubated in an incubator at 37° C. for 2 h.
# [1] = biological target: T2, mouse ANGPTL3(17-455)-His
# Method: as §1, §2
# [2] = biological target: T3, cynomolgus monkey ANGPTL3(17-460)-His
# Method: as §1, §2
Binder,EC50 (rat ANGPTL3(17-455)-His) [nM],EC50 [1] [nM],EC50 [2] [nM]
B1,2.12,1.73,2.53
B2,0.528,0.105,0.2
B3,1.44,1.63,4.55
